The target in test [1] is T1, recombinant human MASP1 active protease (amino acids 297-699, C-terminal His Tag) (human, UniProt P48740 297-699).
T1 sequence: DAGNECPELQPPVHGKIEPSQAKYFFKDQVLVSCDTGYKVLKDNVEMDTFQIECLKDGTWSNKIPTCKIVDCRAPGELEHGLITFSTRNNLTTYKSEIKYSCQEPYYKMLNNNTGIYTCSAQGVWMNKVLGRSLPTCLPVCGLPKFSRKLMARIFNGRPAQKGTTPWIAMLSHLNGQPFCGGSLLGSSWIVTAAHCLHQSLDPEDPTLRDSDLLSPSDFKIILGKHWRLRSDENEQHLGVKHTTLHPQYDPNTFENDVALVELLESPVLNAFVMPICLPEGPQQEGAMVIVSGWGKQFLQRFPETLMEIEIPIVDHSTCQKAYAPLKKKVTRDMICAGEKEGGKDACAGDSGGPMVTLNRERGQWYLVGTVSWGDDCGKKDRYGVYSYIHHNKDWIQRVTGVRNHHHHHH
Nature of the test: cell-based or functional assay.

For test [2], the target named is recombinant human MASP2 active protease (amino acids 297-686, C-terminal His Tag) (human, UniProt O00187 297-686). Nature of the test: cell-based or functional assay.
Chain of recombinant human MASP2 active protease (amino acids 297-686, C-terminal His Tag) (O00187 other isoform, or with tags, fused parts or gaps limits assumed): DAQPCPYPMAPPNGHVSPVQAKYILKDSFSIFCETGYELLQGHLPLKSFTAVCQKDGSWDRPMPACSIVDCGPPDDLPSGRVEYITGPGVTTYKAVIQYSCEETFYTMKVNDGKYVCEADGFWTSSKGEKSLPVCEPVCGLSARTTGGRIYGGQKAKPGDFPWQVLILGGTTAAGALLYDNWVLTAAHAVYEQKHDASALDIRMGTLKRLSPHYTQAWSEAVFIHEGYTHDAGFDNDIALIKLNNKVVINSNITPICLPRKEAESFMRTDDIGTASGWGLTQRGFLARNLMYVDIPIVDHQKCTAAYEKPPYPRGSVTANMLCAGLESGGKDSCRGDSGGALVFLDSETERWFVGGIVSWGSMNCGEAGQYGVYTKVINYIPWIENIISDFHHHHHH

Results on six molecules are retold here after US20210246166A1 (Bayer, published 2021).

Bridge positions count the residues as written; N and C are the ends. Square brackets hold non-standard residues; d marks the D form. Ends that are not written are not given here. PEG9(31 atoms) = 1-amino-3,6,9,12,15,18,21,24,27-nonaoxatriacontan-30-oic acid; Oic = O=C(O)[C@@H]1C[C@@H]2CCCC[C@@H]2N1; NMeI = CC[C@H](C)[C@H](NC)C(=O)O; tBuAla = CC(C)(C)C[C@H](N)C(=O)O; Pen = CC(C)(S)[C@H](N)C(=O)O; NMeA = CN[C@@H](C)C(=O)O; Abu = CC[C@H](N)C(=O)O; Sar = CNCC(=O)O

B1: AIC+SRSLP-(Oic)-IC+IPD-OH (peptide)
peptide: AICSRSLP[Oic]ICIPD-OH
modifications: disulfide 3-11; N-terminus assumed
SMILES: CC[C@H](C)[C@H](NC(=O)[C@H](C)N)C(=O)N[C@H]1CSSC[C@@H](C(=O)N[C@H](C(=O)N2CCC[C@H]2C(=O)N[C@@H](CC(=O)O)C(=O)O)[C@@H](C)CC)NC(=O)[C@H]([C@@H](C)CC)NC(=O)[C@@H]2C[C@@H]3CCCC[C@@H]3N2C(=O)[C@@H]2CCCN2C(=O)[C@H](CC(C)C)NC(=O)[C@H](CO)NC(=O)[C@H](CCCNC(=N)N)NC(=O)[C@H](CO)NC1=O
Turning to B1, the “human MASP1 IC50” value in test [1] was 4.65 nM. Also, the “human MASP2 IC50” value in test [2] stood at 316 nM.

B2: ((N-Me)G)-IC+SRSLP-(Oic)-I-(Pen)+IP-(PEG9(31 atoms))-NH2 (peptide)
peptide: [Sar]ICSRSLP[Oic]I[Pen]IP[PEG9(31 atoms)]-NH2
modifications: disulfide 3-11
With B2, the “human MASP1 IC50” value in test [1] worked out at 3.7 nM. For the same molecule, the “human MASP2 IC50” value in test [2] was found to be 100 nM.

B3: A-(Abu)-C+SRS-((tBu)A)-PPI-(Pen)+IPD-NH2 (peptide)
peptide: A[Abu]CSRS[tBuAla]PPI[Pen]IPD-NH2
modifications: disulfide 3-11; N-terminus assumed
SMILES: CC[C@H](NC(=O)[C@H](C)N)C(=O)N[C@H]1CSSC(C)(C)[C@@H](C(=O)N[C@H](C(=O)N2CCC[C@H]2C(=O)N[C@@H](CC(=O)O)C(N)=O)[C@@H](C)CC)NC(=O)[C@H]([C@@H](C)CC)NC(=O)[C@@H]2CCCN2C(=O)[C@@H]2CCCN2C(=O)[C@H](CC(C)(C)C)NC(=O)[C@H](CO)NC(=O)[C@H](CCCNC(=N)N)NC(=O)[C@H](CO)NC1=O
For B3, the “human MASP1 IC50” value in test [1] was 3.7 nM. Moreover, the “human MASP2 IC50” value in test [2] stood at 68 nM.

B4: TIC+SRS-((tBu)A)-PPI-(Pen)+IPD-OH (peptide)
peptide: TICSRS[tBuAla]PPI[Pen]IPD-OH
modifications: disulfide 3-11; N-terminus assumed
SMILES: CC[C@H](C)[C@H](NC(=O)[C@@H](N)[C@@H](C)O)C(=O)N[C@H]1CSSC(C)(C)[C@@H](C(=O)N[C@H](C(=O)N2CCC[C@H]2C(=O)N[C@@H](CC(=O)O)C(=O)O)[C@@H](C)CC)NC(=O)[C@H]([C@@H](C)CC)NC(=O)[C@@H]2CCCN2C(=O)[C@@H]2CCCN2C(=O)[C@H](CC(C)(C)C)NC(=O)[C@H](CO)NC(=O)[C@H](CCCNC(=N)N)NC(=O)[C@H](CO)NC1=O
Turning to B4, the “human MASP1 IC50” value in test [1] amounted to 3.7 nM. Besides, in test [2], the “human MASP2 IC50” value is 56 nM.

B5: ((N-Me)G)-((N-Me)I)-C+SRS-((tBu)A)-PPI-(Pen)+IP-NH2 (peptide)
peptide: [Sar][NMeI]CSRS[tBuAla]PPI[Pen]IP-NH2
modifications: disulfide 3-11; N-terminus assumed
SMILES: CC[C@H](C)[C@@H]1NC(=O)[C@@H]2CCCN2C(=O)[C@@H]2CCCN2C(=O)[C@H](CC(C)(C)C)NC(=O)[C@H](CO)NC(=O)[C@H](CCCNC(=N)N)NC(=O)[C@H](CO)NC(=O)[C@@H](NC(=O)[C@H]([C@@H](C)CC)N(C)C(=O)CNC)CSSC(C)(C)[C@@H](C(=O)N[C@H](C(=O)N2CCC[C@H]2C(N)=O)[C@@H](C)CC)NC1=O
Consider B5, for which the “human MASP1 IC50” value in test [1] was determined as 3.7 nM. The “human MASP2 IC50” value in test [2] is 590 nM.

B6: ((N-Me)A)-IC+SRSLP-(Oic)-I-(Pen)+I-NH2 (peptide)
peptide: [NMeA]ICSRSLP[Oic]I[Pen]I-NH2
modifications: disulfide 3-11; N-terminus assumed
SMILES: CC[C@H](C)[C@H](NC(=O)[C@H]1NC(=O)[C@H]([C@@H](C)CC)NC(=O)[C@@H]2C[C@@H]3CCCC[C@@H]3N2C(=O)[C@@H]2CCCN2C(=O)[C@H](CC(C)C)NC(=O)[C@H](CO)NC(=O)[C@H](CCCNC(=N)N)NC(=O)[C@H](CO)NC(=O)[C@@H](NC(=O)[C@@H](NC(=O)[C@H](C)NC)[C@@H](C)CC)CSSC1(C)C)C(N)=O
For B6, in test [1], the “human MASP1 IC50” value amounted to 3.75 nM. Also, the “human MASP2 IC50” value in test [2] is 195 nM.
